Laboratory results as given in article PMC9874840.

Biological target: human cyclophilin A (human) (UniProt P62937)
Experiment: SPR

Chain of human cyclophilin A (human) (P62937 whole entry): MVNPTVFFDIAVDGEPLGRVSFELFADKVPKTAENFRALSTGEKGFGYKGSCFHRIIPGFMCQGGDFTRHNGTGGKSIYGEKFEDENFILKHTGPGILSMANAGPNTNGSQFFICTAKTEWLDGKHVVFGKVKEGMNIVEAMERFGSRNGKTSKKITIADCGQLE

Substance	Kd [nM]
SARS-CoV-2 RBD, Deltacron variant (AY.4/BA.1) (from UniProt P0DTC2) (domain or fragment)	18.6
SARS-CoV-2 RBD, Omicron variant (BA.1, B.1.1.529) (from UniProt P0DTC2) (domain or fragment)	26.4
